Laboratory results from the supplement of paper PMC6757056.
± gives the standard deviation of the averaged measurements.

B1: library; a variant is named by its letters at N, in order (parent)
chain: GCUGUCACCGGUGUAUUACCCUAGUGGUCGACCGGUCUGAUGAGUCUNNNNNNAGACGAAACAGC

What was measured:
hypoxanthine [1] = variants of: B1; experiment: normalized RNA/DNA level with ligand (relative to sTRSVctl = 100) (log10 (% of sTRSVctl)); ligand: hypoxanthine (xanthine aptamer); higher = less ribozyme self-cleavage, higher mRNA level; conditions: ligand concentration (+) RNA-Seq: 5 mM, HEK293T, reporter: mCherry (pCS4076), ligand present: yes
Summary of the method: (§1)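 RNA level was computed as RNA reads over DNA reads divided by a spiked-in non-cleaving sequence or by the top sequences, then scaled and log-transformed. Scaling was ×100 with log10, the top group was 25 sequences, and the threshold was ≥100 DNA reads. The reads came from HEK293T cells transfected at 4 µg per 6-well well with ribozyme switch library plasmids (mCherry, or eGFP in some ligand experiments). Total RNA was extracted with EDTA 72 h after transfection, with any ligand added 1 h before it.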

hypoxanthine [2] = variants of: B1; experiment: normalized RNA/DNA level without ligand (relative to sTRSVctl = 100) (log10 (% of sTRSVctl)); ligand: hypoxanthine (xanthine aptamer); higher = less ribozyme self-cleavage, higher mRNA level; conditions: HEK293T, reporter: mCherry (pCS4076), ligand present: no
Summary of the method: as §1

Row | Variant | normalized RNA/DNA level with ligand (log10) (hypoxanthine [1]) | normalized RNA/DNA level without ligand (log10) (hypoxanthine [2])
1 | ACGCCA | 1.95 ± 0.045 | 1.81 ± 0.019
2 | UCCACU | 1.957 ± 0.0089 | 1.99 ± 0.07
3 | UCCACC | 2.02 ± 0.029 | 1.931 ± 0.018
4 | UCCACA | 1.96 ± 0.037 | 1.835 ± 0.0089
5 | ACCUUA | 1.94 ± 0.068 | 1.86 ± 0.03
6 | ACCUUC | 1.958 ± 0.018 | 1.96 ± 0.03
7 | ACCUUU | 1.97 ± 0.034 | 1.89 ± 0.0069
8 | CCCUAG | 1.89 ± 0.025 | 1.77 ± 0.12
9 | CCCUAC | 1.973 ± 0.018 | 1.9 ± 0.11
10 | CCCUAU | 1.971 ± 0.0087 | 1.94 ± 0.025
11 | CCGCGA | 1.88 ± 0.018 | 1.62 ± 0.016
12 | CCGCGC | 1.963 ± 0.0058 | 1.7 ± 0.06
13 | CCGCGU | 1.97 ± 0.023 | 1.71 ± 0.064
14 | GCCGGG | 1.94 ± 0.023 | 1.87 ± 0.06
15 | GCCGGA | 1.95 ± 0.043 | 1.93 ± 0.065
16 | GCCGGC | 1.96 ± 0.066 | 1.762 ± 0.015
17 | CCCAUG | 1.933 ± 0.0045 | 1.81 ± 0.048
18 | CCCAUU | 2 ± 0.03 | 1.927 ± 0.0023
19 | CCCAUA | 1.9 ± 0.06 | 1.89 ± 0.11
20 | UCGAUU | 1.912 ± 0.013 | 1.55 ± 0.12
21 | UCGAUG | 1.922 ± 0.011 | 1.62 ± 0.033
22 | UCGAUA | 1.91 ± 0.026 | 1.57 ± 0.032
23 | ACCAGA | 1.952 ± 0.009 | 1.77 ± 0.024
24 | ACCAGG | 1.832 ± 0.015 | 1.44 ± 0.064

Row | Variant | normalized RNA/DNA level with ligand (log10) (hypoxanthine [1]) | normalized RNA/DNA level without ligand (log10) (hypoxanthine [2])
25 | ACCAGC | 1.993 ± 0.0011 | 1.94 ± 0.043
26 | UCCUUC | 1.93 ± 0.046 | 1.89 ± 0.062
27 | UCCUUU | 2.01 ± 0.04 | 1.94 ± 0.032
28 | UCCUUG | 1.91 ± 0.034 | 1.64 ± 0.022
29 | UCCUUA | 1.956 ± 0.015 | 1.87 ± 0.069
30 | GCGACU | 1.92 ± 0.026 | 1.755 ± 0.013
31 | CCCUGU | 1.94 ± 0.078 | 1.94 ± 0.053
32 | CCCUGC | 2.04 ± 0.059 | 1.901 ± 0.0066
33 | CCCUGG | 1.91 ± 0.028 | 1.8 ± 0.05
34 | GCCCGA | 2.012 ± 0.015 | 1.719 ± 0.0081
35 | GCCCGU | 1.962 ± 0.019 | 1.83 ± 0.044
36 | GCCGAC | 1.891 ± 0.0051 | 1.55 ± 0.032
37 | UCCCAU | 1.93 ± 0.032 | 1.829 ± 0.0082
38 | UCCCAA | 1.918 ± 0.011 | 1.765 ± 0.0033
39 | UCCAGG | 1.9095 ± 0.00051 | 1.8002 ± 0.0018
40 | UCCAGA | 1.93 ± 0.054 | 1.78 ± 0.048
41 | UCCAGC | 2.03 ± 0.048 | 1.9 ± 0.082
42 | GCGCAU | 1.89 ± 0.026 | 1.55 ± 0.044
43 | GCGCAA | 1.873 ± 0.014 | 1.52 ± 0.023
44 | UCGAAC | 1.929 ± 0.011 | 1.734 ± 0.012
45 | UCGAAU | 1.87 ± 0.043 | 1.476 ± 0.0078
46 | UCCAUU | 1.959 ± 0.0064 | 1.89 ± 0.05
47 | UCCAUA | 1.899 ± 0.018 | 1.88 ± 0.024
48 | ACGCGA | 1.77 ± 0.072 | 1.29 ± 0.05

Row | Variant | normalized RNA/DNA level with ligand (log10) (hypoxanthine [1]) | normalized RNA/DNA level without ligand (log10) (hypoxanthine [2])
49 | ACGCGU | 1.95 ± 0.021 | 1.57 ± 0.096
50 | GCCAGC | 1.97 ± 0.047 | 1.81 ± 0.055
51 | GCCAGG | 1.872 ± 0.0046 | 1.43 ± 0.1
52 | GCCAGA | 1.909 ± 0.0037 | 1.72 ± 0.056
53 | GCCAGU | 1.92 ± 0.06 | 1.79 ± 0.046
54 | GCCCCG | 1.92 ± 0.05 | 1.52 ± 0.021
55 | GCCCCA | 1.965 ± 0.0094 | 1.85 ± 0.05
56 | GCCCCU | 1.93 ± 0.029 | 1.933 ± 0.0028
57 | GCCCCC | 1.95 ± 0.033 | 1.83 ± 0.078
58 | CCCGAU | 1.97 ± 0.033 | 1.8 ± 0.029
59 | CCCGAG | 1.89 ± 0.035 | 1.65 ± 0.022
60 | CCCGAA | 1.9 ± 0.085 | 1.76 ± 0.033
61 | CCCGAC | 1.959 ± 0.0051 | 1.84 ± 0.033
62 | GCCGUG | 1.91 ± 0.025 | 1.48 ± 0.036
63 | GCCGUA | 1.965 ± 0.011 | 1.84 ± 0.061
64 | GCCGUC | 1.94 ± 0.096 | 1.91 ± 0.074
65 | CCCGGU | 2 ± 0.069 | 1.92 ± 0.071
66 | CCCGGC | 2 ± 0.041 | 1.859 ± 0.0099
67 | ACCUCC | 1.99 ± 0.03 | 1.919 ± 0.018
68 | ACCUCU | 1.99 ± 0.054 | 1.926 ± 0.01
69 | ACCUCA | 1.904 ± 0.0082 | 1.89 ± 0.027
70 | ACCUCG | 1.928 ± 0.017 | 1.62 ± 0.062
71 | GCGAGC | 1.81 ± 0.034 | 1.37 ± 0.079
72 | ACCGAA | 1.897 ± 0.018 | 1.74 ± 0.045

Row | Variant | normalized RNA/DNA level with ligand (log10) (hypoxanthine [1]) | normalized RNA/DNA level without ligand (log10) (hypoxanthine [2])
73 | ACCGAG | 1.76 ± 0.057 | 1.301 ± 0.0053
74 | ACCGAC | 1.967 ± 0.0065 | 1.825 ± 0.017
75 | CCGAGC | 1.899 ± 0.0048 | 1.44 ± 0.037
76 | CCGAGU | 1.89 ± 0.03 | 1.57 ± 0.029
77 | GCCGCC | 1.99 ± 0.068 | 1.81 ± 0.1
78 | GCCGCU | 1.98 ± 0.05 | 1.95 ± 0.046
79 | UCCCCG | 1.88 ± 0.025 | 1.5 ± 0.024
80 | UCCCCC | 1.9 ± 0.075 | 1.782 ± 0.016
81 | UCCCCU | 1.996 ± 0.014 | 1.9 ± 0.023
82 | UCCGCC | 1.992 ± 0.013 | 1.773 ± 0.015
83 | UCCGCU | 1.94 ± 0.055 | 1.944 ± 0.0031
84 | UCCGCA | 1.9294 ± 0.00025 | 1.807 ± 0.014
85 | UCCCUU | 1.92 ± 0.051 | 1.781 ± 0.017
86 | UCCCUA | 1.92 ± 0.033 | 1.79 ± 0.043
87 | UCCCUC | 1.98 ± 0.03 | 1.66 ± 0.14
88 | CCGAAC | 1.9 ± 0.019 | 1.606 ± 0.0099
89 | CCGAAU | 1.9 ± 0.083 | 1.66 ± 0.028
90 | ACCACG | 1.91 ± 0.032 | 1.67 ± 0.023
91 | ACCACU | 1.96 ± 0.023 | 1.92 ± 0.048
92 | ACCACC | 2.012 ± 0.02 | 1.927 ± 0.0086
93 | ACCACA | 1.94 ± 0.044 | 1.902 ± 0.0069
94 | GCCAUU | 1.96 ± 0.013 | 1.918 ± 0.01
95 | GCCUCU | 2.011 ± 0.019 | 1.96 ± 0.02
96 | GCCUCC | 1.95 ± 0.043 | 1.95 ± 0.023

Row | Variant | normalized RNA/DNA level with ligand (log10) (hypoxanthine [1]) | normalized RNA/DNA level without ligand (log10) (hypoxanthine [2])
97 | GCCUCA | 1.98 ± 0.07 | 1.9 ± 0.024
98 | UCCUGU | 1.93 ± 0.021 | 1.86 ± 0.043
99 | UCCUGA | 1.974 ± 0.017 | 1.77 ± 0.069
100 | GCCCUA | 1.97 ± 0.052 | 1.8733 ± 0.00068
101 | GCCCUC | 1.97 ± 0.035 | 1.88 ± 0.058
102 | ACGAUC | 1.963 ± 0.0088 | 1.89 ± 0.013
103 | ACGAUU | 1.837 ± 0.0076 | 1.32 ± 0.019
104 | ACCCAG | 1.83 ± 0.03 | 1.48 ± 0.044
105 | ACCCAC | 1.921 ± 0.0048 | 1.792 ± 0.0063
106 | ACCCAU | 1.93 ± 0.026 | 1.79 ± 0.051
107 | ACCCAA | 1.896 ± 0.013 | 1.801 ± 0.013
108 | GCCUAU | 1.944 ± 0.013 | 1.852 ± 0.011
109 | GCCUAC | 1.954 ± 0.0075 | 1.757 ± 0.0057
110 | ACGACC | 1.97 ± 0.051 | 1.85 ± 0.02
111 | CCCGCU | 1.94 ± 0.056 | 1.99 ± 0.03
112 | CCCGCG | 1.9 ± 0.029 | 1.84 ± 0.019
113 | CCCAGC | 1.999 ± 0.0073 | 1.877 ± 0.013
114 | CCCAGA | 1.93 ± 0.048 | 1.83 ± 0.046
115 | CCCAGG | 1.934 ± 0.018 | 1.83 ± 0.019
116 | CCCAGU | 1.934 ± 0.0021 | 1.89 ± 0.032
